# Numbering of substitutions follows the chain as printed. Where no end group is shown, it is not given here. fluorescein = fluorescein moiety attached to the N-terminus of the peptide (N-terminal fluorescein label)
# T1: ExoI Glu150Ala variant (Escherichia coli, UniProt P04995 1-475)
# T1 construct: also called E150A; Glu150 variant
# T1 sequence: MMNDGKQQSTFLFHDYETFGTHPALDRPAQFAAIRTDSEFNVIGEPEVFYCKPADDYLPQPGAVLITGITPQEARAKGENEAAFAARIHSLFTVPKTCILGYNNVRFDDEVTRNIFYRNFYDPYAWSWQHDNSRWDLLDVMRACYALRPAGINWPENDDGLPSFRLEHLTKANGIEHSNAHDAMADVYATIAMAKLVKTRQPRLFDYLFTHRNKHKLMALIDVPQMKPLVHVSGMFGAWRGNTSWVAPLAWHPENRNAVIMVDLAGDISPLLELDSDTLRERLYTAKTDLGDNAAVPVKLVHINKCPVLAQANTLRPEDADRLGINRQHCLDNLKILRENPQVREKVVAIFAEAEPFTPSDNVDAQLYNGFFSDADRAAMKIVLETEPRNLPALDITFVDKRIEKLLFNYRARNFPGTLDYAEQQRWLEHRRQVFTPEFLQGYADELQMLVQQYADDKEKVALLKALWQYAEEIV
# T2: ExoI Gln448Ala variant (Escherichia coli, UniProt P04995 1-475)
# T2 construct: helical domain residue; also called Q448A; Gln448 variant
# T2 sequence: T1 sequence with A150E, Q448A
# T3: ExoI Arg148Ala variant (Escherichia coli, UniProt P04995 1-475)
# T3 construct: also called R148A; Arg148 variant
# T3 sequence: T1 sequence with R148A, A150E
# T4: ExoI Gln311Ala variant (Escherichia coli, UniProt P04995 1-475)
# T4 construct: also called Q311A; Gln311 variant
# T4 sequence: T1 sequence with A150E, Q311A
# B1: fluorescein-labeled SSB C-terminal peptide (fluorescein-WMDFDDDIPF) (peptide)
# peptide: fluorescein-WMDFDDDIPF
# notes: also called F-SSB-Ct; F-WT
# What was measured:
# Assay in all cases: fluorescence anisotropy equilibrium binding (Kd,app), ExoI variant titrated into fluorescein-labeled peptide
# ExoI Glu150Ala variant = target: T1, ExoI Glu150Ala variant
# ExoI Gln448Ala variant = target: T2, ExoI Gln448Ala variant
# ExoI Arg148Ala variant = target: T3, ExoI Arg148Ala variant
# ExoI Gln311Ala variant = target: T4, ExoI Gln311Ala variant
binder,measurement,setting,value
B1,Kd,ExoI Glu150Ala variant,0.072 µM
same,Kd,ExoI Gln448Ala variant,0.181 µM
same,Kd,ExoI Arg148Ala variant,> 1 µM
same,Kd,ExoI Gln311Ala variant,0.304 µM
